This note sets out measurements from publication PMC7390872.

Bounds are passed on as bounds.

In this assay the target is recombinant thioredoxin (rTRX) [thioredoxin: P0AA25]. Description: SPR; BIAcore T200; anti-His-tag antibody amine-coupled to a CM5 chip captures the His-tagged recombinant protein (0.1 mg/mL, about 200 RU); ligands (0.1 mg/mL) injected at 10 μL/min for 180 s; HBS-EP pH 7.5 (10 mM HEPES, 150 mM NaCl, 3 mM EDTA, 0.005% P20); relative reaction value, RUs >10 considered positive. (SPR reads the build-up and loss of mass on a sensor chip optically.)
Chain of recombinant thioredoxin (rTRX) [thioredoxin: P0AA25] (P0AA25 whole entry): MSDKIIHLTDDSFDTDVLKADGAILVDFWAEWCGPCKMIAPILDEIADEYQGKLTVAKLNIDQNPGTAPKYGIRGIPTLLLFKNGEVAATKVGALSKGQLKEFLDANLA

Regarding laminin protein, the response units (relative reaction value) was under 10 RUs.
